From PMC7020754

T1: Rv0023 (XRE family transcription regulator) (Mycobacterium tuberculosis, UniProt P9WMI3 1-256)
T1 sequence: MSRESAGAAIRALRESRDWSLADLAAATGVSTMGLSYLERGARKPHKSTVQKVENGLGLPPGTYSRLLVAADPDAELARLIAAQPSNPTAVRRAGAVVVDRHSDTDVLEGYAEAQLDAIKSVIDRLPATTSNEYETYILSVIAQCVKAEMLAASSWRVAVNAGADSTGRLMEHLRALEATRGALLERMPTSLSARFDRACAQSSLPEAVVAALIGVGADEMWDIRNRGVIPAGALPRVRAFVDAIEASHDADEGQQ


Target: T1, Rv0023 (XRE family transcription …)
Assay: EMSA; 8 pmol protein
Details: protein: recombinant; tags: His (implied by Ni-NTA purification; pET23a, also printed pET21b); chain copies: 2; label: 32P; blunt

Row | Binder | binding result
1 | OL1M (dsDNA) DNA 1: CACCCCTTATGTAGAGACGTGTGTATCGCGATTCTCTTGC DNA 2: GCAAGAGAATCGCGATACACACGTCTCTACATAAGGGGTG | no binding
2 | OL3M (dsDNA) DNA 1: AGAGCCCGCCACAGACAGAGACGCGTGTGCCTATGTTTCG DNA 2: CGAAACATAGGCACACGCGTCTCTGTCTGTGGCGGGCTCT | no binding
